In publication PMC6921966 (2019):

Molecular target: M2e-VHH-23m (llama)
Assay: ITC

Chain of M2e-VHH-23m (llama) (VHH, as listed by the source): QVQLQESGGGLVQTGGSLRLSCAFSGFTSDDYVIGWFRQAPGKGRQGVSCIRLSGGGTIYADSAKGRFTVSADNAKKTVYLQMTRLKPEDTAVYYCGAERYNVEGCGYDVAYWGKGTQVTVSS

B1: human H3N2 M2e peptide (peptide)
peptide: SLLTEVETPIRNEWGCRCNDSSD
  Ka: 1.37e+06 M⁻¹
